Kd, koff and kon data for 4 molecules are collected here from patent publication US20160068595A1 (DEVELOPMEN CENTER FOR BIOTECHNOLOGY, published 2016).

Residue numbers refer to the chain shown, from its start.

In general, Kd refers to a measure of binding affinity in units of concentration. By koff is commonly meant a measure of how fast the partners let go of each other. The term kon denotes the second-order rate constant of association.

Experiment [1] deals with T1, human IL-20 (interleukin-20), recombinant (human, UniProt Q9NYY1 25-176).
T1 construct: Analyte in the BIAcore assay and stimulus (300 pM) in the BaF3 proliferation assay; also called hIL-20; human cytokine IL20
T1 sequence (looked up): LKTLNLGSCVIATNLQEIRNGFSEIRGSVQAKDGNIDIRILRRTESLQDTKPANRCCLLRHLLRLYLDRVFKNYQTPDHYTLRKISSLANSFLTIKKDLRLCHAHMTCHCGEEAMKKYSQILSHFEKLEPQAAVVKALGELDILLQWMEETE
Nature of the experiment: SPR, BIAcore T100; antibody captured on anti-human IgG CM5 chip, IL-20 as analyte, 1:1 model. The protocol:
The human IL-20-binding kinetics of each purified anti-IL-20 antibody was estimated by surface plasmon resonance measurements using the BIAcore T100 biosensor system. The anti-IL-20 Ab was captured on an anti-human IgG immobilized CM5 sensor chip. The immobilized level of anti-human IgG was about 9,000-10,000 RU and the capture level of anti-IL-20 antibody was about 350-400 RU. Binding was carried out at constant flow rates of 30 μL/min of IL-20 at various dilutions in HEPES buffered saline (BIA certified) for 60 seconds. Dissociations were carried out by passing through HEPES buffer for 480 seconds. Regeneration of the surface was carried out by […] 10 mM Glycine pH 2.0/1.5 (50:50) for 40 seconds.
The IL-20 affinity of each of the anti-IL-20 antibodies were calculated from an affinity binding curve fit using the predefined model (1:1 binding) provided by Biacore T100 evaluation software 2.0.
(In general: SPR reads the build-up and loss of mass on a sensor chip optically.)

Experiment [2] addresses T1, human IL-20 (interleukin-20), …. Briefly: binding kinetics of CDR mutants; method not named.

B1: mouse anti-IL-20 monoclonal antibody 7E (antibody, V domains shown)
VH: ELKLEESGGGLVQPGGSMKLSCAASGFTFSDAWMDWVRQSPEKGLEWIAEIRSKANNYATYFAESVKGRFTISRDDSKSGVYLQMNNLRAEDTGIYFCTKLSLRYWFFDVWGAGTTVTVSS
VL: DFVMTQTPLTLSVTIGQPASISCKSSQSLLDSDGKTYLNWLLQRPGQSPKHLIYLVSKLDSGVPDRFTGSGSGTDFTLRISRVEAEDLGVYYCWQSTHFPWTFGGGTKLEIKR
notes: Mouse monoclonal antibody; The BIAcore method captures antibody on anti-human IgG; also called mAb 7E; mAb E7
In the case of B1, in experiment [1], the Kd is 781 pM, the koff was 0.000711 s⁻¹ and the on-rate constant (kon) turned out to be 911000 M⁻¹ s⁻¹.

B2: FLB35 (HH12 variant) (antibody, V domains shown)
VH: EVQLQESGGGLVQPGGSLRLSCAASGFTFSDAWMDWVRQAPGKGLEWVGEIRSKANNYATYFAESVKGRFTISRDDSKNSLYLQMNSLKTEDTGVYYCTKLDLRYWFFDVWGQGTLVTVSS
VL: DIQMTQSPLSLSVTPGQPASISCKSSQSLLDYDGKTYLNWYQQKPGQSPQLLIYLVSKLDSGVPDRFSGSGSGTDFTLKISRVEAEDVGVYYCWQSTLFPWTFGQGTKVEIKR
Take B2: in experiment [2], the Kd is 437 pM, the off-rate (koff) came to 0.000431 s⁻¹ and the on-rate (kon) was determined as 988000 M⁻¹ s⁻¹.

B3: FLB35(S) (FLB35 with Ser at CDRL1 position 27E) (antibody, V domains shown)
VH: B2 VH
VL: B2 VL with Y32S
Take B3: in experiment [2], the dissociation constant Kd is 4030 pM, the koff turned out to be 0.00283 s⁻¹ and the kon amounted to 703000 M⁻¹ s⁻¹.

B4: FLB67 (HH12 variant) (antibody, V domains shown)
VH: B2 VH with D102S, R104Q
VL: B2 VL with L55Q, L98H
For the molecule B4, in experiment [2], the dissociation constant (Kd) was 803 pM, the koff is 0.000713 s⁻¹ and the kon amounted to 888000 M⁻¹ s⁻¹.
